Earlier results, collected in article PMC7739374.

Molecular target: Sos (Homo sapiens) (UniProt Q07889)

Kd: 28 µM
Substance: Ras (from UniProt P01112)
